Data taken from article PMC5014688 (Structure (London, England : 1993), 2016).
Ends that are not written are not given here. * marks the point of attachment. Crotonyl(E) = C/C=C/C(=O)*

Legend:
[1] = molecular target: Histone H4K5ac/K8ac peptide (Homo sapiens) (UniProt P62805); conditions: cited from earlier work
[2] = molecular target: Histone H4K5cr/K8cr peptide (Homo sapiens) (UniProt P62805); conditions: cited from earlier work
AF9 YEATS domain = molecular target: T1, AF9 YEATS domain (Homo sapiens, UniProt P42568); experiment: 2D 1H-15N HSQC NMR binding to AF9 YEATS domain; conditions: 30°C, H3 peptide added to AF9 YEATS domain
T1 sequence (P42568 1-138): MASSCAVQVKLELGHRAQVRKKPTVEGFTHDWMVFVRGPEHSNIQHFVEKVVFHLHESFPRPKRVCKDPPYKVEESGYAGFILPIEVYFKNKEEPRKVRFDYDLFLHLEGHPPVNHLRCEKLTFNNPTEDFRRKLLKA

[3] = molecular target: Histone H3K4cr peptide (Homo sapiens) (UniProt P68431); experiment: ITC; conditions: cited from earlier work
[4] = molecular target: T2, AF9 YEATS domain (residues 1–138) (human, UniProt P42568 1-138); experiment: ITC
T2 sequence (looked up): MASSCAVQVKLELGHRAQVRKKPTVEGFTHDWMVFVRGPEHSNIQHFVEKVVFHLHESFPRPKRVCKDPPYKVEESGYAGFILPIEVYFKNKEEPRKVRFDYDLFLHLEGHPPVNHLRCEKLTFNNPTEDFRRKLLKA

Sequence of Sirt3 (Q9NTG7 2-399): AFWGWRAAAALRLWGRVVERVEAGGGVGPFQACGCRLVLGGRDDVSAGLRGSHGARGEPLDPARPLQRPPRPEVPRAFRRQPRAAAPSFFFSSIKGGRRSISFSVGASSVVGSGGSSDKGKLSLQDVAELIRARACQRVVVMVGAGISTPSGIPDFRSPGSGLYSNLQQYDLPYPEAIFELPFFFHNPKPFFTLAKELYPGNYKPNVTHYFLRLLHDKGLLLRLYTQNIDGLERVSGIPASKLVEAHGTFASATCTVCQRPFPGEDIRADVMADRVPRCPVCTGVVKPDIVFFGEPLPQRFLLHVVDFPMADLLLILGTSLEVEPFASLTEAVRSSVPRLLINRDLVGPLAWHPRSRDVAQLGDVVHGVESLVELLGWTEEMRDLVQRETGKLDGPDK

## TAF1 BD2 (from UniProt P21675)
[1]
  Kd: 50 µM
[2]
  Kd: 100 µM

## TKQTAR-K-SSGGKA [unmodified H3 peptide]
AF9 YEATS domain
  changes of protein backbone amide resonances / binding: did not cause any protein resonance changes

## Sirt3 (from UniProt Q9NTG7)
[3]
  Kd: 25 µM

## ATKAARK(Crotonyl(E))SAPATG [histone H3K27cr peptide (residues 21–33)]
[4]
  binding result: binds

## ATKAARK(Ac)SAPATG [histone H3K27ac peptide (residues 21–33)]
[4]
  binding result: binds
